# Laboratory results from patent US20250304650A1.
# Target: feline FcRn (FCN-F82W3, Acrobiosystems) (feline)
# Assay: SPR Carterra, IgG coupled, pH 6.0
Binder,Kd [nM],koff [s⁻¹],kon [M⁻¹ s⁻¹]
"anti-NGF feline IgG1a, Fc variant S428L, Q311V (antibody, part only; not given: Anti-NGF variable domains, not shown: another chain or arm of the molecule; small tags and cut ends) Fc: PPEMLGGPSIFIFPPKPKDTLSISRTPEVTCLVVDLGPDDSDVQITWFVDNTQVYTAKTSPREEQFNSTYRVVSVLPILHVDWLKGKEFKCKVNSKSLPSPIERTISKAKGQPHEPQVYVLPPAQEELSRNKVSVTCLIKSFHPPDIAVEWEITGQPEPENNYRTTPPQLDSDGTYFVYSKLSVDRSHWQRGNTYTCSVLHEALHSHHTQKSLTQSPGK",11.7,0.0107,916000
"anti-NGF feline IgG1a, Fc variant S428L, T286E (antibody, part only; not given: anti-NGF variable domains, not shown: another chain or arm of the molecule; small tags and cut ends) Fc: PPEMLGGPSIFIFPPKPKDTLSISRTPEVTCLVVDLGPDDSDVQITWFVDNTQVYEAKTSPREEQFNSTYRVVSVLPILHQDWLKGKEFKCKVNSKSLPSPIERTISKAKGQPHEPQVYVLPPAQEELSRNKVSVTCLIKSFHPPDIAVEWEITGQPEPENNYRTTPPQLDSDGTYFVYSKLSVDRSHWQRGNTYTCSVLHEALHSHHTQKSLTQSPGK",8.6,0.00987,1.15e+06
"anti-NGF feline IgG1a, Fc variant S428L, S252R (antibody, part only; not given: anti-NGF variable domains, not shown: another chain or arm of the molecule; small tags and cut ends) Fc: PPEMLGGPSIFIFPPKPKDTLRISRTPEVTCLVVDLGPDDSDVQITWFVDNTQVYTAKTSPREEQFNSTYRVVSVLPILHQDWLKGKEFKCKVNSKSLPSPIERTISKAKGQPHEPQVYVLPPAQEELSRNKVSVTCLIKSFHPPDIAVEWEITGQPEPENNYRTTPPQLDSDGTYFVYSKLSVDRSHWQRGNTYTCSVLHEALHSHHTQKSLTQSPGK",9,0.00873,974000
"anti-NGF feline IgG1a, Fc variant S428L (antibody, part only; not given: Anti-NGF variable domains, not shown: another chain or arm of the molecule; small tags and cut ends) Fc: PPEMLGGPSIFIFPPKPKDTLSISRTPEVTCLVVDLGPDDSDVQITWFVDNTQVYTAKTSPREEQFNSTYRVVSVLPILHQDWLKGKEFKCKVNSKSLPSPIERTISKAKGQPHEPQVYVLPPAQEELSRNKVSVTCLIKSFHPPDIAVEWEITGQPEPENNYRTTPPQLDSDGTYFVYSKLSVDRSHWQRGNTYTCSVLHEALHSHHTQKSLTQSPGK",16.7,0.0241,1.45e+06
"anti-NGF feline IgG1a, Fc variant S434F (antibody, part only; not given: anti-NGF variable domains, light chain, not shown: another chain or arm of the molecule; small tags and cut ends) Fc: PPEMLGGPSIFIFPPKPKDTLSISRTPEVTCLVVDLGPDDSDVQITWFVDNTQVYTAKTSPREEQFNSTYRVVSVLPILHQDWLKGKEFKCKVNSKSLPSPIERTISKAKGQPHEPQVYVLPPAQEELSRNKVSVTCLIKSFHPPDIAVEWEITGQPEPENNYRTTPPQLDSDGTYFVYSKLSVDRSHWQRGNTYTCSVSHEALHFHHTQKSLTQSPGK",4.2,0.00718,1.73e+06
"anti-NGF feline IgG1a, Fc variant S428L, Q311K (antibody, part only; not given: anti-NGF variable domains, light chain, not shown: another chain or arm of the molecule; small tags and cut ends) Fc: PPEMLGGPSIFIFPPKPKDTLSISRTPEVTCLVVDLGPDDSDVQITWFVDNTQVYTAKTSPREEQFNSTYRVVSVLPILHKDWLKGKEFKCKVNSKSLPSPIERTISKAKGQPHEPQVYVLPPAQEELSRNKVSVTCLIKSFHPPDIAVEWEITGQPEPENNYRTTPPQLDSDGTYFVYSKLSVDRSHWQRGNTYTCSVLHEALHSHHTQKSLTQSPGK",10.5,0.0101,958000
"anti-NGF feline IgG1a, Fc variant S428L, D312T (antibody, part only; not given: anti-NGF variable domains, not shown: another chain or arm of the molecule; small tags and cut ends) Fc: PPEMLGGPSIFIFPPKPKDTLSISRTPEVTCLVVDLGPDDSDVQITWFVDNTQVYTAKTSPREEQFNSTYRVVSVLPILHQTWLKGKEFKCKVNSKSLPSPIERTISKAKGQPHEPQVYVLPPAQEELSRNKVSVTCLIKSFHPPDIAVEWEITGQPEPENNYRTTPPQLDSDGTYFVYSKLSVDRSHWQRGNTYTCSVLHEALHSHHTQKSLTQSPGK",11.2,0.0113,1.01e+06
"anti-NGF feline IgG1a, Fc variant S428L, I377V (antibody, part only; not given: anti-NGF variable domains, not shown: another chain or arm of the molecule; small tags and cut ends) Fc: PPEMLGGPSIFIFPPKPKDTLSISRTPEVTCLVVDLGPDDSDVQITWFVDNTQVYTAKTSPREEQFNSTYRVVSVLPILHQDWLKGKEFKCKVNSKSLPSPIERTISKAKGQPHEPQVYVLPPAQEELSRNKVSVTCLIKSFHPPDVAVEWEITGQPEPENNYRTTPPQLDSDGTYFVYSKLSVDRSHWQRGNTYTCSVLHEALHSHHTQKSLTQSPGK",10.8,0.0183,1.69e+06
"anti-NGF feline IgG1a, Fc variant S434Y, E293K (antibody, part only; not given: anti-NGF variable domains, light chain, not shown: another chain or arm of the molecule; small tags and cut ends) Fc: PPEMLGGPSIFIFPPKPKDTLSISRTPEVTCLVVDLGPDDSDVQITWFVDNTQVYTAKTSPRKEQFNSTYRVVSVLPILHQDWLKGKEFKCKVNSKSLPSPIERTISKAKGQPHEPQVYVLPPAQEELSRNKVSVTCLIKSFHPPDIAVEWEITGQPEPENNYRTTPPQLDSDGTYFVYSKLSVDRSHWQRGNTYTCSVSHEALHYHHTQKSLTQSPGK",4.1,0.00501,1.22e+06

# The remaining binders from weak to strong by Kd, led by results:
Kd [nM],koff [s⁻¹],kon [M⁻¹ s⁻¹],Binder
4.1,0.00458,1.13e+06,"anti-NGF feline IgG1a, Fc variant S434Y, L309E (antibody, part only; not given: Anti-NGF variable domains, not shown: another chain or arm of the molecule; small tags and cut ends) Fc: PPEMLGGPSIFIFPPKPKDTLSISRTPEVTCLVVDLGPDDSDVQITWFVDNTQVYTAKTSPREEQFNSTYRVVSVLPIEHQDWLKGKEFKCKVNSKSLPSPIERTISKAKGQPHEPQVYVLPPAQEELSRNKVSVTCLIKSFHPPDIAVEWEITGQPEPENNYRTTPPQLDSDGTYFVYSKLSVDRSHWQRGNTYTCSVSHEALHYHHTQKSLTQSPGK"
4,0.00549,1.38e+06,"anti-NGF feline IgG1a, Fc variant S434Y, K326D (antibody, part only; not given: anti-NGF variable domains, light chain, not shown: another chain or arm of the molecule; small tags and cut ends) Fc: PPEMLGGPSIFIFPPKPKDTLSISRTPEVTCLVVDLGPDDSDVQITWFVDNTQVYTAKTSPREEQFNSTYRVVSVLPILHQDWLKGKEFKCKVNSDSLPSPIERTISKAKGQPHEPQVYVLPPAQEELSRNKVSVTCLIKSFHPPDIAVEWEITGQPEPENNYRTTPPQLDSDGTYFVYSKLSVDRSHWQRGNTYTCSVSHEALHYHHTQKSLTQSPGK"
3.6,0.00345,965000,"anti-NGF feline IgG1a, Fc variant S434Y, T286E (antibody, part only; not given: anti-NGF variable domains, light chain, not shown: another chain or arm of the molecule; small tags and cut ends) Fc: PPEMLGGPSIFIFPPKPKDTLSISRTPEVTCLVVDLGPDDSDVQITWFVDNTQVYEAKTSPREEQFNSTYRVVSVLPILHQDWLKGKEFKCKVNSKSLPSPIERTISKAKGQPHEPQVYVLPPAQEELSRNKVSVTCLIKSFHPPDIAVEWEITGQPEPENNYRTTPPQLDSDGTYFVYSKLSVDRSHWQRGNTYTCSVSHEALHYHHTQKSLTQSPGK"
3.6,0.00559,1.53e+06,"anti-NGF feline IgG1a, Fc variant S434Y, T289K (antibody, part only; not given: Anti-NGF variable domains, not shown: another chain or arm of the molecule; small tags and cut ends) Fc: PPEMLGGPSIFIFPPKPKDTLSISRTPEVTCLVVDLGPDDSDVQITWFVDNTQVYTAKKSPREEQFNSTYRVVSVLPILHQDWLKGKEFKCKVNSKSLPSPIERTISKAKGQPHEPQVYVLPPAQEELSRNKVSVTCLIKSFHPPDIAVEWEITGQPEPENNYRTTPPQLDSDGTYFVYSKLSVDRSHWQRGNTYTCSVSHEALHYHHTQKSLTQSPGK"
3.4,0.00667,1.98e+06,"anti-NGF feline IgG1a, Fc variant S434Y, Q347L (antibody, part only; not given: Anti-NGF variable domains, not shown: another chain or arm of the molecule; small tags and cut ends) Fc: PPEMLGGPSIFIFPPKPKDTLSISRTPEVTCLVVDLGPDDSDVQITWFVDNTQVYTAKTSPREEQFNSTYRVVSVLPILHQDWLKGKEFKCKVNSKSLPSPIERTISKAKGQPHEPLVYVLPPAQEELSRNKVSVTCLIKSFHPPDIAVEWEITGQPEPENNYRTTPPQLDSDGTYFVYSKLSVDRSHWQRGNTYTCSVSHEALHYHHTQKSLTQSPGK"
3.4,0.00534,1.57e+06,"anti-NGF feline IgG1a, Fc variant S434Y, E293D (antibody, part only; not given: anti-NGF variable domains, light chain, not shown: another chain or arm of the molecule; small tags and cut ends) Fc: PPEMLGGPSIFIFPPKPKDTLSISRTPEVTCLVVDLGPDDSDVQITWFVDNTQVYTAKTSPRDEQFNSTYRVVSVLPILHQDWLKGKEFKCKVNSKSLPSPIERTISKAKGQPHEPQVYVLPPAQEELSRNKVSVTCLIKSFHPPDIAVEWEITGQPEPENNYRTTPPQLDSDGTYFVYSKLSVDRSHWQRGNTYTCSVSHEALHYHHTQKSLTQSPGK"
3.3,0.00498,1.51e+06,"anti-NGF feline IgG1a, Fc variant S434Y, L262E (antibody, part only; not given: Anti-NGF variable domains, not shown: another chain or arm of the molecule; small tags and cut ends) Fc: PPEMLGGPSIFIFPPKPKDTLSISRTPEVTCEVVDLGPDDSDVQITWFVDNTQVYTAKTSPREEQFNSTYRVVSVLPILHQDWLKGKEFKCKVNSKSLPSPIERTISKAKGQPHEPQVYVLPPAQEELSRNKVSVTCLIKSFHPPDIAVEWEITGQPEPENNYRTTPPQLDSDGTYFVYSKLSVDRSHWQRGNTYTCSVSHEALHYHHTQKSLTQSPGK"
3.3,0.00583,1.77e+06,"anti-NGF feline IgG1a, Fc variant S434F, E380D (antibody, part only; not given: anti-NGF variable domains, light chain, not shown: another chain or arm of the molecule; small tags and cut ends) Fc: PPEMLGGPSIFIFPPKPKDTLSISRTPEVTCLVVDLGPDDSDVQITWFVDNTQVYTAKTSPREEQFNSTYRVVSVLPILHQDWLKGKEFKCKVNSKSLPSPIERTISKAKGQPHEPQVYVLPPAQEELSRNKVSVTCLIKSFHPPDIAVDWEITGQPEPENNYRTTPPQLDSDGTYFVYSKLSVDRSHWQRGNTYTCSVSHEALHFHHTQKSLTQSPGK"
3.1,0.00504,1.61e+06,"anti-NGF feline IgG1a, Fc variant S434Y, S254K (antibody, part only; not given: anti-NGF variable domains, light chain, not shown: another chain or arm of the molecule; small tags and cut ends) Fc: PPEMLGGPSIFIFPPKPKDTLSIKRTPEVTCLVVDLGPDDSDVQITWFVDNTQVYTAKTSPREEQFNSTYRVVSVLPILHQDWLKGKEFKCKVNSKSLPSPIERTISKAKGQPHEPQVYVLPPAQEELSRNKVSVTCLIKSFHPPDIAVEWEITGQPEPENNYRTTPPQLDSDGTYFVYSKLSVDRSHWQRGNTYTCSVSHEALHYHHTQKSLTQSPGK"
2.9,0.00371,1.28e+06,"anti-NGF feline IgG1a, Fc variant S434Y, T286D (antibody, part only; not given: anti-NGF variable domains, not shown: another chain or arm of the molecule; small tags and cut ends) Fc: PPEMLGGPSIFIFPPKPKDTLSISRTPEVTCLVVDLGPDDSDVQITWFVDNTQVYDAKTSPREEQFNSTYRVVSVLPILHQDWLKGKEFKCKVNSKSLPSPIERTISKAKGQPHEPQVYVLPPAQEELSRNKVSVTCLIKSFHPPDIAVEWEITGQPEPENNYRTTPPQLDSDGTYFVYSKLSVDRSHWQRGNTYTCSVSHEALHYHHTQKSLTQSPGK"
1.8,0.004,2.21e+06,"anti-NGF feline IgG1a, Fc variant S434Y, L309V (antibody, part only; not given: anti-NGF variable domains, light chain, not shown: another chain or arm of the molecule; small tags and cut ends) Fc: PPEMLGGPSIFIFPPKPKDTLSISRTPEVTCLVVDLGPDDSDVQITWFVDNTQVYTAKTSPREEQFNSTYRVVSVLPIVHQDWLKGKEFKCKVNSKSLPSPIERTISKAKGQPHEPQVYVLPPAQEELSRNKVSVTCLIKSFHPPDIAVEWEITGQPEPENNYRTTPPQLDSDGTYFVYSKLSVDRSHWQRGNTYTCSVSHEALHYHHTQKSLTQSPGK"
